From US20070003561A1 (published 2007) come the findings set out here.

Broadly, the Kd is the free concentration of one partner at which half of the binding sites on the other are occupied at equilibrium, for simple one-to-one binding. A high value points to lower affinity. For orientation: koff means the rate constant with which the complex falls apart. Read a low koff as slow dissociation. One may read the kon as the rate constant with which the complex forms.

In experiment [1] the target is T1, Streptococcus pneumoniae surface adhesin A (PsaA) protein (Streptococcus pneumoniae, UniProt P0A4G2 20-309).
T1 construct: also called Pneumococcal surface adhesin A; recombinant PsaA
T1 sequence: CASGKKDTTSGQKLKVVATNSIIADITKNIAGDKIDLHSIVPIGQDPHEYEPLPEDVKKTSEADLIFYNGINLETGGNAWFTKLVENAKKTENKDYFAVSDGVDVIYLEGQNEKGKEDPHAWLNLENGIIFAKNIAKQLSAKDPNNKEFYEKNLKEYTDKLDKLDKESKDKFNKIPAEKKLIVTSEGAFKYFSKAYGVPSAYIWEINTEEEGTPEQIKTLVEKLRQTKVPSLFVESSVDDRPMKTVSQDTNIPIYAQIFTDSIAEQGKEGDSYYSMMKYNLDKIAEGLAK
Nature of the experiment: whole-bacteria ELISA, strain R6, Ab 5 ng/ml.

Experiment [2] deals with T1, Streptococcus pneumoniae surface …. As to the kind of experiment: whole-bacteria ELISA, strain R6, Ab 5 µg/ml.
For experiment [3] the target is unchanged. Nature of the experiment: whole-bacteria ELISA, strain 1, Ab 0.5 µg/ml. On the technique in general: ELISA stands for enzyme-linked immunosorbent assay.
Experiment [4] has the same target. As to the kind of experiment: whole-bacteria ELISA, strain 3, Ab 0.5 µg/ml.
The target is the same in experiment [5]. Nature of the experiment: whole-bacteria ELISA, strain 4, Ab 0.5 µg/ml.
The target is the same in experiment [6]. Nature of the experiment: whole-bacteria ELISA, strain 8, Ab 0.5 µg/ml.
Experiment [7] has the same target. As to the kind of experiment: whole-bacteria ELISA, strain R6, Ab 50 ng/ml.
For experiment [8] the target is unchanged. Nature of the experiment: whole-bacteria ELISA, strain 14, Ab 0.5 µg/ml.
The target is the same in experiment [9]. As to the kind of experiment: whole-bacteria ELISA, strain 6B, Ab 0.5 µg/ml.
For experiment [10] the target is unchanged. As to the kind of experiment: whole-bacteria ELISA, strain 7F, Ab 0.5 µg/ml.
For experiment [11] the target is unchanged. Nature of the experiment: whole-bacteria ELISA, strain 9V, Ab 0.5 µg/ml.
The target is the same in experiment [12]. Nature of the experiment: whole-bacteria ELISA, strain R6, Ab 0.5 ng/ml.
For experiment [13] the target is unchanged. Nature of the experiment: whole-bacteria ELISA, strain R6, Ab 0.5 µg/ml.
For experiment [14] the target is unchanged. As to the kind of experiment: whole-bacteria ELISA, strain 12F, Ab 0.5 µg/ml.
Experiment [15] shares this target. Nature of the experiment: whole-bacteria ELISA, strain 23F, Ab 0.5 µg/ml.
Experiment [16] has the same target. As to the kind of experiment: whole-bacteria ELISA, strain D39, Ab 0.5 µg/ml.
For experiment [17] the target is unchanged. As to the kind of experiment: SPR (Biacore 3000), PsaA amine-coupled on CM5 chip, antibody in flow, 1:1 Langmuir fit. (In SPR one partner is held on a chip, and binding of the other changes the refractive index at the surface.)
Experiment [18] deals with T2, fusion protein consisting of soluble CD64 linked to the Fc portion of human IgM (human, UniProt P12314 16-292; P01871 106-453, limits assumed).
T2 construct: Used as a culture supernatant; also called soluble CD64-IgM fusion protein
As to the kind of experiment: bispecific sandwich ELISA: coated recombinant PsaA, detection with soluble CD64-IgM fusion and AP anti-human IgM.

Where only a bound is given, the exact number is not on record here.

T2 sequence (P12314 other isoform, or with tags, fused parts or gaps limits assumed): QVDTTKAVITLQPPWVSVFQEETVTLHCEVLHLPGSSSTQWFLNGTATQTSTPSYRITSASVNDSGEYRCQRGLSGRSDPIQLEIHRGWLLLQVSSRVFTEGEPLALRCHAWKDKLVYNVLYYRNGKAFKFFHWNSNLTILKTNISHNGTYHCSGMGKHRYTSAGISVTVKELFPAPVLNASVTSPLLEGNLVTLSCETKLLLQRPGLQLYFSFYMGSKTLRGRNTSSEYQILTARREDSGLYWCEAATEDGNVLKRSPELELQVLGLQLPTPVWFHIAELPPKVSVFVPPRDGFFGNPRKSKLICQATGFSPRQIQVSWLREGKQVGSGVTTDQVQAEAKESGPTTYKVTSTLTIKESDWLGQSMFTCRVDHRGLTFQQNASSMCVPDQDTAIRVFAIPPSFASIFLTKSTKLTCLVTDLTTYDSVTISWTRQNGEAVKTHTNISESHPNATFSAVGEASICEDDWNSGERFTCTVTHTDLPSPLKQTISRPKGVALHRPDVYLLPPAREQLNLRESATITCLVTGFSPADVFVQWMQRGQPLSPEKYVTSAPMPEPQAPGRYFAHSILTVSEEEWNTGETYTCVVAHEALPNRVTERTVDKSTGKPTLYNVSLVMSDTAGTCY

B1: Anti-PsaA 7-1G9 (antibody, V domains shown)
VH: QVRLQQWGAGLLKPSETLSLTCAVFGGSFSGFSWSWIRQTPGKGLEWIGEIDYRGSTNYNPSLKSRVTILRDTSRSQFSLKLSSVTAADSAVFYCARGGPRFDYWGQGTLVTVSS
VL: DIQMTQSPSSLSASVGDRVTITCRASQGISSWLAWYQQKPEKAPESLIYVASSLQSGVPSRFSGSGSGTDFTLTISSLQPEDFATYYCQQYNSYPPTFGQGTKVEIK
notes: Fully human monoclonal antibody (HuMAb-Mouse), kappa light chain; also called clone 7-1G9.1
For the molecule B1, the “R6 ELISA (corrected)” value in [1] is 0.54; in experiment [2] it was 1.36; in experiment [7] it was 1.78; in [12] it was 0.31; in experiment [13], 1.68. The “ELISA (0.5 µg/ml) (corrected)” value came to 0.35 in experiment [3]; 1.24 in experiment [4]; 0.33 in experiment [5]; 1.5 in experiment [6]; 1.32 in experiment [8]; 0.4 in experiment [9]. The “ELISA (0.5 µg/ml) (corrected)” value in [10] was 1.06; in [11] it was over 3; in experiment [13], 1.38; in experiment [14], 1.46; in experiment [15], 0.36; in [16], 0.68. For the same molecule, in experiment [17], the Kd came to 63.4 pM. Moreover, in experiment [17], the koff is 2.87e-05 s⁻¹. In [17], this molecule had a kon of 435000 M⁻¹ s⁻¹.

B2: Anti-PsaA 1-15E5 (antibody, V domains shown)
VH: EVQLVESGGGLVQPGGSLRLSCAASGFTFNIFGMSWVRQAPGKGLEWVANIKQDGSEKYYVDSVKGRFTISRDNAKNSLYLQMNSLRAEDTAVYYCARDRFYYGSGSYYYYYNGMDVWGQGTTVTVSS
VL: EIVLTQSPATLSLSPGERATLSCRASQSVSSYLAWYQQKPGQAPRLLIYDASNRATGIPARFSGSGSGTDFTLTISSLEPEDFAVYYCQQRSNWPLTFGGGTKVEI
notes: Fully human monoclonal antibody (HuMAb-Mouse), kappa light chain; also called clone 1-15E5.2.1; 1-1-15E5
As to B2, in [17], binding was put at a Kd of 118 pM, the koff turned out to be 6.72e-06 s⁻¹ and the kon is 57100 M⁻¹ s⁻¹.

B3: Anti-PsaA 5-9A7 (antibody, V domains shown)
VH: EVQLVESGGGLVQPGGSLRLSCAASGFTFSSFWMSWVRQAPGKGLEWVANIKQDGSEKFYVDSVKGRFTISRDNAKNSLYLQMNSLRAEDTAVYYCARDRITMVRPYYYFYNGLDVWGQGTTVTVSS
VL: EIVLTQSPATLSLSPGERATLSCRASQSVSSYLAWYQQKPGQAPRLLIYDASNRATGIPARFSGSGSGTDFTLTISSLEPEDFAVYYCQQRSNWPPFTFGPGTKVDIK
notes: Fully human monoclonal antibody (HuMAb-Mouse), kappa light chain; also called clone 5-9A7
Take B3: the “R6 ELISA (corrected)” value in experiment [1] turned out to be 0.41; in [2], 1.39; in experiment [7] it was 1.32; in [12] it was 0.26; in experiment [13], 1.65. The “ELISA (0.5 µg/ml) (corrected)” value was found to be 0.4 in experiment [3]; 1.31 in experiment [4]; 0.33 in experiment [5]; 1.52 in experiment [6]; 1.42 in experiment [8]; 0.39 in experiment [9]. Moreover, the “ELISA (0.5 µg/ml) (corrected)” value in experiment [10] is 1.17; in experiment [11] it was over 3; in [13] it was 1.39; in [14] it was 1.51; in experiment [15] it was 0.37; in experiment [16], 0.66. This molecule also gave a Kd in experiment [17] of 37.4 pM. In [17], this molecule returned a koff of 1.41e-05 s⁻¹. In [17], the kon was 377000 M⁻¹ s⁻¹.

B4: F(ab′)2 fragment of the anti-PsaA Ab 5-9A7 (other)
VH: B3 VH
VL: B3 VL
notes: F(ab′)2 made by pepsin digestion; also called anti-PsaA F(ab′)2; 5-9A7 F(ab′)2
With B4, in experiment [18], the binding result is reported as “no binding (tested: 1 µg/ml)”.
